Results on two substances are retold here after patent publication US20100204147A1, “Methods For Delivering Thymosin Beta 4, Analogues, Isoforms and Other Derivatives” (REGENERX BIOPHARMACEUTICALS, INC., priority 2003, published 2010).

Holding throughout (assay): cell-based or functional assay
Experiment [1] has as its target Fibrin (made from human fibrinogen with bovine thrombin) (human) (UniProt P02671).
The target in experiment [2] is Human fibrinogen depleted of plasminogen, fibronectin and von Willebrand factor (human) (UniProt P02671).
Experiment [3] has as its target Recombinant γ-module comprising residues 148-411 of the human fibrinogen γ chain (human) (UniProt P02679).

Regarding “FITC-labeled thymosin β4 (from UniProt P62328 2-44) (peptide)”, the degree of factor XIIIa-mediated incorporation after 4 hours (spectrophotometric) (moles per mole) is 0.4 in experiment [1] and 0.2 in experiment [2].
Turning to “Synthetic thymosin β4 (from UniProt P62328 2-44) (peptide)”, in experiment [3], the apparent Michaelis constant (Km) for the reaction of incorporation by factor XIIIa is 183 µM.
